Earlier results as cited in publication PMC9265785.

Target: Pex5 (Saccharomyces cerevisiae) (UniProt P35056)
Sequence of UniProt P35056 (P35056 whole entry): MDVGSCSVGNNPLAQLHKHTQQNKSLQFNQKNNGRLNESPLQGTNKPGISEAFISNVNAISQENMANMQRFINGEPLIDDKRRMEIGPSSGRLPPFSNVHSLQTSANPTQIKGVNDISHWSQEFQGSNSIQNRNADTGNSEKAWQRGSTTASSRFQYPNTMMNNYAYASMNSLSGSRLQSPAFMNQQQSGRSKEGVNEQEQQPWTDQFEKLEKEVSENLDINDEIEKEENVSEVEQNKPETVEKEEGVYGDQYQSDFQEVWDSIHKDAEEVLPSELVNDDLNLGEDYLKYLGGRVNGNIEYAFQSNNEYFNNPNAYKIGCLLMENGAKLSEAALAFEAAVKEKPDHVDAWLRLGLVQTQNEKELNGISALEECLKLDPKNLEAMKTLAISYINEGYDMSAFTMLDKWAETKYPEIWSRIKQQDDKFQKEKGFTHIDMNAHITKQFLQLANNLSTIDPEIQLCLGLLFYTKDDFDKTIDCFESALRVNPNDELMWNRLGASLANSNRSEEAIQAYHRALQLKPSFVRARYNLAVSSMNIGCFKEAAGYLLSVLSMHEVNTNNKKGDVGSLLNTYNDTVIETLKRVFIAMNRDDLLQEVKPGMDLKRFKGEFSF

- Kd: 1000 nM
Substance: Pex1 (from UniProt P24004)
